Source: publication PMC10471779, “Antibody-mediated neutralization of galectin-3 as a strategy for the treatment of systemic sclerosis” (Nature Communications, 2023)
Numbering of substitutions follows the chain as printed. Values belong to the binder of their own block, whether it stands above or below them.

How the values were obtained:
Details in all cases: both partners purified
human galectin-14 = molecular target: T1, human galectin-14 (Homo sapiens, UniProt Q8TCE9); assay: ELISA; dose-response binding ELISA, IgG 0.0009 to 500 nM on immobilised hGal-3-FL and mGal-3-FL (hGal-14 in Supplementary Fig. 7b); detection by anti-hFab-HRP
T1 construct: galectin-14, human; also called hGal-14; Gal-14; source: bought: Novus Biologicals NBP1-50082
T1 sequence (Q8TCE9 whole entry): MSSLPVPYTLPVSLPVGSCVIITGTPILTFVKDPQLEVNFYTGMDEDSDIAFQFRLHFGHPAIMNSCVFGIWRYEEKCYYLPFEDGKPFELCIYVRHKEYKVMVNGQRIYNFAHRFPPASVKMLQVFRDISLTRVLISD

[1] = molecular target: T2, recombinant human galectin-3, full length, His-tagged (hGal-3-FL-His Nter) (Homo sapiens, UniProt P17931); assay: as above
T2 construct: galectin-3, human, full length; the SPR methods say only recombinant Gal-3 (Novalix); also called FL hGal-3; FL-Gal-3; source: recombinant, produced by Novalix (Illkirch, France); not shown: His, N-terminal, kept
T2 sequence (P17931 whole entry): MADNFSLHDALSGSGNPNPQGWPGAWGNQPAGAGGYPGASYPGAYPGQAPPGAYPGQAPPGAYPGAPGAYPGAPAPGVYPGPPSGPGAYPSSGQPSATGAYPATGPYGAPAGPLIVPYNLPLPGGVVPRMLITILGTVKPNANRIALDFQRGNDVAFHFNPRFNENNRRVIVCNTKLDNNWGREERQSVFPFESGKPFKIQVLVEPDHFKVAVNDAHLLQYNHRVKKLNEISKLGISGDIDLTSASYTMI

[2] = molecular target: T3, recombinant mouse galectin-3, full length, His-tagged (mGal-3-FL-His Nter) (Mus musculus, UniProt P16110); assay: as above
T3 construct: galectin-3, mouse, full length; source: recombinant, produced by Novalix (Illkirch, France); not shown: His, N-terminal, kept
T3 sequence (P16110 whole entry): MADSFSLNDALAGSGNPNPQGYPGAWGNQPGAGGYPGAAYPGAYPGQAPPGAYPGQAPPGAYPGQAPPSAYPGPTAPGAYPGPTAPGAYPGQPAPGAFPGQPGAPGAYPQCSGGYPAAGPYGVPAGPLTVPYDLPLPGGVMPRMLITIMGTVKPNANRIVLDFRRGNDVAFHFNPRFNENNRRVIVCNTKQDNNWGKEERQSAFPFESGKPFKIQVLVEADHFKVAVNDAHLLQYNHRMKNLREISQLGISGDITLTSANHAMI

[3] = molecular target: T3, recombinant mouse galectin-3, full …; assay: SPR; Biacore T-200, mAb captured on anti-human Fc CM5 surface, Gal-3 0.5 to 50 nM injected, single-cycle kinetics, HBS-P (10 mM HEPES, 150 mM NaCl, 0.05% P20), 25 C, 1:1 Langmuir fit
[4] = molecular target: T4, recombinant human galectin-3 carbohydrate recognition domain, His-tagged (hGal-3-CRD-His Nter) (human, UniProt P17931); assay: ELISA; competition ELISA: hGal-3-CRD coated at 1 ug/mL, IgG 0.0006 to 780 nM for 1 h, washed, then asialofetuin at 8 ug/mL for 30 min; bound asialofetuin detected by HRP-labelled anti-asialofetuin antibody
T4 construct: galectin-3, human, carbohydrate recognition domain; also called CRD of hGal-3; source: recombinant, produced by Novalix (Illkirch, France); not shown: His, N-terminal, kept
T4 sequence (P17931 114-250): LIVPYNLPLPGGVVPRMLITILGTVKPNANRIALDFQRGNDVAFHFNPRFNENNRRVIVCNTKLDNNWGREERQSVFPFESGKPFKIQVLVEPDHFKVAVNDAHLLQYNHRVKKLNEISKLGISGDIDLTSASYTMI

[5] = molecular target: T5, recombinant human galectin-3, full-length (Homo sapiens, UniProt P17931); assay: SPR; Biacore T-200; mAb captured (400-680 RU) on a CM5 chip with immobilised anti-human Fc mAb; Gal-3 0.5-50 nM injected, single-cycle kinetics, 210 s association, 600 s dissociation, 30 uL/min; HBS-P (10 mM HEPES, 150 mM NaCl, 0.05% P20), 25 °C; 1:1 Langmuir fit; duplicates
T5 construct: galectin-3 (Gal-3), human, full-length; the His tag is named for the Novalix protein in the ELISA methods; the SPR methods say only 'recombinant Gal-3 from multiple species (Novalix)'; also called human Gal-3 (FL); hGal-3 (FL); source: recombinant, produced by Novalix
T5 sequence (P17931 whole entry): as the sequence (P17931 whole entry) above

[6] = molecular target: T6, recombinant mouse galectin-3, full-length (Mus musculus, UniProt P16110); assay: as above
T6 construct: galectin-3 (Gal-3), mouse, full-length; the His tag is named for the Novalix protein in the ELISA methods; the SPR methods say only 'recombinant Gal-3 from multiple species (Novalix)'; also called mouse Gal-3 (FL); mGal-3 (FL); source: recombinant, produced by Novalix
T6 sequence (P16110 whole entry): as the sequence (P16110 whole entry) above

[7] = molecular target: T7, recombinant human galectin-3 carbohydrate recognition domain (Homo sapiens, UniProt P17931); assay: as above
T7 construct: galectin-3 (Gal-3), human, carbohydrate recognition domain; the His tag is named in the ELISA methods, not in the SPR methods; also called hGal-3 (CRD); hGal-3-CRD-His Nter; source: recombinant, produced by Novalix

[8] = molecular target: T8, recombinant rat galectin-3 carbohydrate recognition domain (Rattus norvegicus, UniProt P08699); assay: as above
T8 construct: galectin-3 (Gal-3), rat, carbohydrate recognition domain; also called rat Gal-3 (CRD); source: recombinant, Novalix

[9] = molecular target: T9, recombinant dog galectin-3 carbohydrate recognition domain (Canis lupus familiaris, UniProt P38486); assay: as above
T9 construct: galectin-3 (Gal-3), dog, carbohydrate recognition domain; also called dog Gal-3 (CRD); source: recombinant, Novalix

EC50 (human galectin-14): 59.9 nM
EC50 [1]: 0.37 nM
EC50 [2]: 0.99 nM
Kd [3]: < 5 nM
IC50 [4]: 2.18 nM
B1: D11 anti-Gal-3 monoclonal antibody (hIgG1 format, LALA) (antibody, V domains shown)
VH: EVQLVESGGSLVKPGGSLRLSCAASGFTFSNYNMNWVRQAPGKGLEWISSIYGSSRYIYYADFVKGRFTISRDNAKNSLYLQMNSLRAEDTAVYYCVRSSYGGMDVWGRGTLVTVSS
VL: QSVLTQPASVSGSPGQSITISCAGTSSDVGGSYNVAWYQQHPGKAPKLMIYYDSYRPSGVSNRFSGSKSGNTASLTISGLQAEDEADYYCSSYTGYSTRVFGGGTKLEIK
notes: from scFv D11 (HuscI library, human framework 13R4); human IgG1 heavy-chain constant region, engineered with the double LALA mutation in the Fc region; IgG1 with LALA; also called D11 mAb; source: CHO-K1 cells (Evitria), transfected, purified (protein A, MabSelect SuRe)

Kd [5]: 14.9 nM
koff [5]: 0.0247 s⁻¹
kon [5]: 1.66e+06 M⁻¹ s⁻¹
Kd [6]: 2.8 nM
koff [6]: 0.00178 s⁻¹
kon [6]: 635000 M⁻¹ s⁻¹
Kd [7]: 26.4 nM
koff [7]: 0.0428 s⁻¹
kon [7]: 1.62e+06 M⁻¹ s⁻¹
Kd [8]: 8.55 nM
koff [8]: 0.018 s⁻¹
kon [8]: 2.11e+06 M⁻¹ s⁻¹
Kd [9]: 24.7 nM
koff [9]: 0.0235 s⁻¹
kon [9]: 948000 M⁻¹ s⁻¹
B2: D11 anti-Gal-3 monoclonal antibody (antibody, V domains shown)
VH: B1 VH
VL: B1 VL
notes: human IgG1, LALA; also called D11 mAb; source: CHO-K1 cells (Evitria), purified (protein A, MabSelect SuRe)

Kd [5]: 9 nM
koff [5]: 0.0292 s⁻¹
kon [5]: 3.24e+06 M⁻¹ s⁻¹
Kd [6]: 4.14 nM
koff [6]: 0.00407 s⁻¹
kon [6]: 983000 M⁻¹ s⁻¹
Kd [7]: 14.4 nM
koff [7]: 0.0377 s⁻¹
kon [7]: 2.61e+06 M⁻¹ s⁻¹
Kd [8]: 15 nM
koff [8]: 0.0497 s⁻¹
kon [8]: 3.31e+06 M⁻¹ s⁻¹
Kd [9]: 21.5 nM
koff [9]: 0.016 s⁻¹
kon [9]: 746000 M⁻¹ s⁻¹
B3: E07 anti-Gal-3 monoclonal antibody (antibody, V domains shown)
VH: B1 VH with S50N, S100Y
VL: B1 VL with S32Y, N34S, A36S, Y55N
notes: human IgG1, LALA; also called E07 mAb; source: CHO-K1 cells (Evitria), purified (protein A, MabSelect SuRe)

EC50 (human galectin-14): 90.6 nM
EC50 [1]: 0.07 nM
EC50 [2]: 0.3 nM
Kd [3]: < 5 nM
IC50 [4]: 1.5 nM
B4: E07 anti-Gal-3 monoclonal antibody (hIgG1 format, LALA) (antibody, V domains shown)
VH: B1 VH with S50N, S100Y
VL: B1 VL with S32Y, N34S, A36S, Y55N
notes: from scFv E07 (HuscI library, human framework 13R4); human IgG1 heavy-chain constant region, engineered with the double LALA mutation in the Fc region; IgG1 with LALA; also called E07 mAb; source: CHO-K1 cells (Evitria), transfected, purified (protein A, MabSelect SuRe)
